Values belong to the binder of their own block, whether it stands above or below them.
What was measured:
Test in all cases: two-hybrid library CCmax;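 note: natural log of median RNA to DNA barcode read ratio; higher means stronger binding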
4H2592-AA = target: T1, 4H2592-AA; settings: mean of both orientations
T1 chain: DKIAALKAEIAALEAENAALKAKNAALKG

4H2219-AA = target: T2, 4H2219-AA
T2 chain: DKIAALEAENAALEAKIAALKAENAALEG

4H249-AA = target: T3, 4H249-AA; settings: mean of both orientations
T3 chain: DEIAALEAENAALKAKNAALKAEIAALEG

4H2774-AA = target: T4, 4H2774-AA; settings: mean of both orientations
T4 chain: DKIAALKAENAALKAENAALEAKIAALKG

4H2611-AA = target: T5, 4H2611-AA; settings: mean of both orientations
T5 chain: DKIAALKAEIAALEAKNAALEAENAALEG

4H3493-AA = target: T6, 4H3493-AA
T6 chain: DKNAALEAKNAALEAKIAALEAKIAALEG

4H376-AA = target: T7, 4H376-AA; settings: mean of both orientations
T7 chain: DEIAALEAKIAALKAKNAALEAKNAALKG

4H3001-AA = target: T8, 4H3001-AA; settings: mean of both orientations
T8 chain: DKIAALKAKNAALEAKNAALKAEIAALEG

4H347-AA = target: T9, 4H347-AA; settings: mean of both orientations
T9 chain: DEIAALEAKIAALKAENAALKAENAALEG

4H688-AA = target: T10, 4H688-AA; settings: mean of both orientations
T10 chain: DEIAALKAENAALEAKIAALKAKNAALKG

4H2504-AA = target: T11, 4H2504-AA; settings: mean of both orientations
T11 chain: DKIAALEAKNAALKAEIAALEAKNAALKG

4H406-AA = target: T12, 4H406-AA; settings: mean of both orientations
T12 chain: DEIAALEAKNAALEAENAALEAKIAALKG

4H3381-AA = target: T13, 4H3381-AA; settings: mean of both orientations
T13 chain: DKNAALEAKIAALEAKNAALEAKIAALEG

4H963-AA = target: T14, 4H963-AA; settings: mean of both orientations
T14 chain: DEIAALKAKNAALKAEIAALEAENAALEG

4H3340-AA = target: T15, 4H3340-AA; settings: mean of both orientations
T15 chain: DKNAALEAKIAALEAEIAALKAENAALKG

4H2078-AA = target: T16, 4H2078-AA; settings: mean of both orientations
T16 chain: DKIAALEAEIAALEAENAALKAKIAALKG

4H2642-AA = target: T17, 4H2642-AA; settings: mean of both orientations
T17 chain: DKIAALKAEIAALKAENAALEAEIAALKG

4H2837-AA = target: T18, 4H2837-AA; settings: mean of both orientations
T18 chain: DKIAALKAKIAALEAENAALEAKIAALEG

4H2466-AA = target: T19, 4H2466-AA; settings: mean of both orientations
T19 chain: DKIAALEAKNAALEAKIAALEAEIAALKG

4H1324-AA = target: T20, 4H1324-AA; settings: mean of both orientations
T20 chain: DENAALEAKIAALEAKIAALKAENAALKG

4H1552-AA = target: T21, 4H1552-AA; settings: mean of both orientations
T21 chain: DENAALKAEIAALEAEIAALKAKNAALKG

4H2883-AA = target: T22, 4H2883-AA; settings: mean of both orientations
T22 chain: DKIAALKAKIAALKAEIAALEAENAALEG

4H3627-AA = target: T23, 4H3627-AA; settings: mean of both orientations
T23 chain: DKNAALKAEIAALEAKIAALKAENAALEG

4H2190-AA = target: T24, 4H2190-AA; settings: mean of both orientations
T24 chain: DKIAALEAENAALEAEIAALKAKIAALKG

4H2949-AA = target: T25, 4H2949-AA; settings: mean of both orientations
T25 chain: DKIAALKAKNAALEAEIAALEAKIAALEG

4H678-AA = target: T26, 4H678-AA; settings: mean of both orientations
T26 chain: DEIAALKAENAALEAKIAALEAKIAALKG

4H429-AA = target: T27, 4H429-AA
T27 chain: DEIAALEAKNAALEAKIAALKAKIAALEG

4H2277-AA = target: T28, 4H2277-AA; settings: mean of both orientations
T28 chain: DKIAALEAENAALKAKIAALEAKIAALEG

4H2617-AA = target: T29, 4H2617-AA; settings: mean of both orientations
T29 chain: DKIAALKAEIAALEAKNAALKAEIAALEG

4H794-AA = target: T30, 4H794-AA; settings: mean of both orientations
T30 chain: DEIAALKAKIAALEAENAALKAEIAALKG

4H3427-AA = target: T31, 4H3427-AA; settings: mean of both orientations
T31 chain: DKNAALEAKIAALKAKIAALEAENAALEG

4H2393-AA = target: T32, 4H2393-AA; settings: mean of both orientations
T32 chain: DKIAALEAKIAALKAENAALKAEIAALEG

4H3844-AA = target: T33, 4H3844-AA; settings: mean of both orientations
T33 chain: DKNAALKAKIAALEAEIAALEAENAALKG

4H2575-AA = target: T34, 4H2575-AA; settings: mean of both orientations
T34 chain: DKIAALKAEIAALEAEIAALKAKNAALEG

4H1352-AA = target: T35, 4H1352-AA; settings: mean of both orientations
T35 chain: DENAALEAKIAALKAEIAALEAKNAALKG

4H317-AA = target: T36, 4H317-AA; settings: mean of both orientations
T36 chain: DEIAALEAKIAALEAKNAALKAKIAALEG

4H3606-AA = target: T37, 4H3606-AA; settings: mean of both orientations
T37 chain: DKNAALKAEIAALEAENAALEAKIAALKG

4H122-AA = target: T38, 4H122-AA
T38 chain: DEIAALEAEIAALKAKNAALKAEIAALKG

4H3921-AA = target: T39, 4H3921-AA; settings: mean of both orientations
T39 chain: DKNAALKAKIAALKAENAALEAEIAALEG

4H906-AA = target: T40, 4H906-AA; settings: mean of both orientations
T40 chain: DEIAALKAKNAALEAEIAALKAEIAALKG

4H993-AA = target: T41, 4H993-AA; settings: mean of both orientations
T41 chain: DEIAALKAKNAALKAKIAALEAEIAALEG

4H342-AA = target: T42, 4H342-AA; settings: mean of both orientations
T42 chain: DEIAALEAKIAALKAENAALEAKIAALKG

4H2754-AA = target: T43, 4H2754-AA; settings: mean of both orientations
T43 chain: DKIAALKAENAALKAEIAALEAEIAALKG

4H2354-AA = target: T44, 4H2354-AA; settings: mean of both orientations
T44 chain: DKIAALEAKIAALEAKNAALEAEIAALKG

4H48-AA = target: T45, 4H48-AA
T45 chain: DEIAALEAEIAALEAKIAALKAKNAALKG

4H717-AA = target: T46, 4H717-AA; settings: mean of both orientations
T46 chain: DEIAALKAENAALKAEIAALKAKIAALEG

4H454-AA = target: T47, 4H454-AA; settings: mean of both orientations
T47 chain: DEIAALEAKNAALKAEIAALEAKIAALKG

4H605-AA = target: T48, 4H605-AA; settings: mean of both orientations
T48 chain: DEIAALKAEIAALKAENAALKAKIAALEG

4H780-AA = target: T49, 4H780-AA; settings: mean of both orientations
T49 chain: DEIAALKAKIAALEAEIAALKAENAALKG

4H3655-AA = target: T50, 4H3655-AA; settings: mean of both orientations
T50 chain: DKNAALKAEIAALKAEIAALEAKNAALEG

4H234-AA = target: T51, 4H234-AA; settings: mean of both orientations
T51 chain: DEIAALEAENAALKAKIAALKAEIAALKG

4H335-AA = target: T52, 4H335-AA; settings: mean of both orientations
T52 chain: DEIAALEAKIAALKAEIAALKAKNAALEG

4H3343-AA = target: T53, 4H3343-AA; settings: mean of both orientations
T53 chain: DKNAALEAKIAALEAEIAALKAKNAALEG

4H2729-AA = target: T54, 4H2729-AA; settings: mean of both orientations
T54 chain: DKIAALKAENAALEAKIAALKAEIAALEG

4H2944-AA = target: T55, 4H2944-AA; settings: mean of both orientations
T55 chain: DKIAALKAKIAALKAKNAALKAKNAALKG

4H881-AA = target: T56, 4H881-AA; settings: mean of both orientations
T56 chain: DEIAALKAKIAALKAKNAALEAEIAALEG

4H2505-AA = target: T57, 4H2505-AA; settings: mean of both orientations
T57 chain: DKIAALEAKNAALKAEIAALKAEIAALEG

4H1401-AA = target: T58, 4H1401-AA; settings: mean of both orientations
T58 chain: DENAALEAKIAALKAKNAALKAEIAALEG

4H3112-AA = target: T59, 4H3112-AA; settings: mean of both orientations
T59 chain: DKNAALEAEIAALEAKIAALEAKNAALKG

4H2165-AA = target: T60, 4H2165-AA; settings: mean of both orientations
T60 chain: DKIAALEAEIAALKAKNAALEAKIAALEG

4H566-AA = target: T61, 4H566-AA; settings: mean of both orientations
T61 chain: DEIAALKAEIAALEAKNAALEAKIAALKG

4H1636-AA = target: T62, 4H1636-AA; settings: mean of both orientations
T62 chain: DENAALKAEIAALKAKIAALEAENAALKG

4H1867-AA = target: T63, 4H1867-AA; settings: mean of both orientations
T63 chain: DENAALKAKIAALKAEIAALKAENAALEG

4H2151-AA = target: T64, 4H2151-AA; settings: mean of both orientations
T64 chain: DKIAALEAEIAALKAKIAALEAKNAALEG

interaction score (4H2592-AA): -0.491
interaction score (4H2219-AA): -1.21
interaction score (4H249-AA): -1.35
interaction score (4H2774-AA): -0.727
interaction score (4H2611-AA): -1.33
interaction score (4H3493-AA): -1.56
interaction score (4H376-AA): -1.64
interaction score (4H3001-AA): -0.483
interaction score (4H347-AA): -1.36
interaction score (4H688-AA): -0.493
interaction score (4H2504-AA): 2.21
interaction score (4H406-AA): -1.81
interaction score (4H3381-AA): -1.13
interaction score (4H963-AA): 0.45
interaction score (4H3340-AA): -1.39
Binder: DKIAALEAENAALEAKIAALKAENAALEG [4H2219-AA]

interaction score (4H2078-AA): 2.3
interaction score (4H2642-AA): 1.83
interaction score (4H2837-AA): 2.11
interaction score (4H2466-AA): 0.13
interaction score (4H1324-AA): -1.09
interaction score (4H1552-AA): -1.07
interaction score (4H2883-AA): 0.209
interaction score (4H3627-AA): -1.12
interaction score (4H2190-AA): 1.57
interaction score (4H2949-AA): -0.323
interaction score (4H678-AA): 1.05
interaction score (4H429-AA): -0.548
interaction score (4H2277-AA): -1.29
interaction score (4H2617-AA): 1.96
interaction score (4H794-AA): 1.48
interaction score (4H3427-AA): -0.449
interaction score (4H2393-AA): 1.93
interaction score (4H3844-AA): -0.909
interaction score (4H2575-AA): -0.393
interaction score (4H1352-AA): -1.3
interaction score (4H317-AA): -1.2
interaction score (4H3606-AA): 2.36
interaction score (4H122-AA): 1.61
interaction score (4H3921-AA): 2.16
interaction score (4H906-AA): -1.43
interaction score (4H993-AA): -1.48
interaction score (4H342-AA): 1.76
interaction score (4H2754-AA): 0.606
interaction score (4H2354-AA): 0.207
interaction score (4H48-AA): -0.383
interaction score (4H717-AA): -1.17
interaction score (4H454-AA): -0.403
interaction score (4H605-AA): 0.129
interaction score (4H780-AA): -1.74
interaction score (4H3655-AA): -1.14
interaction score (4H234-AA): -1.28
interaction score (4H335-AA): -1.07
interaction score (4H3343-AA): -1.31
interaction score (4H2729-AA): 0.657
interaction score (4H2944-AA): -1.12
interaction score (4H881-AA): 1.43
interaction score (4H2505-AA): -1.39
interaction score (4H1401-AA): -1.2
interaction score (4H3112-AA): -0.199
interaction score (4H2165-AA): -0.0868
interaction score (4H566-AA): 1.5
interaction score (4H1636-AA): -1.44
interaction score (4H1867-AA): 1.01
interaction score (4H2151-AA): -1.58
Binder: DEIAALEAEIAALKAKNAALKAEIAALKG [4H122-AA]

— paper PMC10397247
